This assay addresses T1, human LAG-3 (cell surface) (human, UniProt P18627 23-525).
T1 construct: whole, on cells; also called CHO-human LAG-3
T1 sequence (looked up): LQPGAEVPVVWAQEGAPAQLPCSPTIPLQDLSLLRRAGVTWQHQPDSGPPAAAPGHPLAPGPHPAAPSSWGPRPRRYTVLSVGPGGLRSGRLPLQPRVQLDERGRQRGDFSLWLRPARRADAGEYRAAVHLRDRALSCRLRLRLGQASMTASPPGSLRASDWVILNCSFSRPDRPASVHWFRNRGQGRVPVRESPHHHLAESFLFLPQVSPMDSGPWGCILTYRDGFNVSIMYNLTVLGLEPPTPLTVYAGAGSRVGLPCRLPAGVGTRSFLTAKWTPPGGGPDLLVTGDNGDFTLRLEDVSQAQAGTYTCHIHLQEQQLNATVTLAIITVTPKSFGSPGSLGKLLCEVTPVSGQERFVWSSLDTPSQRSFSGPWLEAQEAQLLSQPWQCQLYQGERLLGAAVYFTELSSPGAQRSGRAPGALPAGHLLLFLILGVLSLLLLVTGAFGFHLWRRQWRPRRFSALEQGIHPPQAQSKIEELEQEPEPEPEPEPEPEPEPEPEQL
Put plainly: flow cytometry, CHO cells expressing human LAG-3. How it is done:
To test the ability of the antibodies to bind to cell surface LAG-3 protein, the antibodies were incubated with a CHO cell line that had been transfected to express human LAG-3 on the cell surface. The 25F7, 26H10, 25E3, 8B7, 11F2 and 17E5 monoclonal antibodies were serially diluted with cold lx PFAE buffer (1×PBS+2% FBS, 0.02% sodium azide, 2 mM Na EDTA). For the binding reaction, 50 μl of diluted antibody solution was added to a 50 μl cell suspension containing 2×10⁵ cells and the mixture was incubated on ice for 30 minutes. The cells were then washed two times with 1×PFAE buffer. A 1:100 dilution of FITC-labeled goat anti-human kappa light chain antibody (Bethyl Laboratories, Inc., Cat. # A80-115F) was added and the mixture was incubated for 30 minutes at 4° C., followed by washing twice with cold 1×PFAE buffer. After the final wash, 150 μl of cold 1×PFAE containing 10 μg/mL propidium iodide (Roche Applied Science, Cat #1 348 639) was added to each solution and analysis of antibody binding was carried out by flow cytometry using a FACScalibur flow cytometer (BD Bioscience).

B1: 11F2 human monoclonal antibody (antibody, IgG2, V domains shown)
VH: QVQLVQSGAEVKKPGASVKVSCKVSGYTLTEVSMHWVRQAPGKGLEWMGGFDPEDGETIYAQKFQGRVTMTEDTSTDTAYMELSSLRSEDTAVYYCATAFVVVVAASDYWGQGTLVTVSS
VL: EIVLTQSPATLSLSPGERATLSCRASQSVSSYLAWYQQKPGQAPRLLIYDASNRATGIPARFSGSGSGTDFTLTISSLEPEDFAVYYCQQRSNWPWTFGQGTKVEIK
As for B1, the concentration giving a half-maximal response (EC50) (in general, the midpoint of the concentration-response curve) was determined as 15.1 nM.

(Values after patent US20200231671A1 (E R SQUIBB AND SONS L L C, published 2020).)
